# Test results: publication PMC3287200 (Nucleic Acids Research, 2011)
# Numbering of substitutions follows the chain as printed. Names and notes keep the numbering of the source.
# T1: BsHfq (GST removed) (Bacillus subtilis, UniProt O31796 1-73)
# T1 sequence: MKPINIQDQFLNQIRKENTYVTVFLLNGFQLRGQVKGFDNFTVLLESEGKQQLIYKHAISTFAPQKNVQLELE
# T2: BsHfq-His (Bacillus subtilis, UniProt O31796 1-73)
# T2 sequence: T1 sequence
# T3: BsHfq-His F41A (Bacillus subtilis, UniProt O31796 1-73, F41A)
# T3 sequence: T1 sequence with F41A
# T4: BsHfq-His N40A (Bacillus subtilis, UniProt O31796 1-73, N40A)
# T4 sequence: T1 sequence with N40A
# T5: BsHfq-His F24A (Bacillus subtilis, UniProt O31796 1-73, F24A)
# T5 sequence: T1 sequence with F24A
# T6: BsHfq-His F29A (Bacillus subtilis, UniProt O31796 1-73, F29A)
# T6 sequence: T1 sequence with F29A
# T7: BsHfq-His Q30A (Bacillus subtilis, UniProt O31796 1-73, Q30A)
# T7 sequence: T1 sequence with Q30A
# T8: BsHfq-His R32A (Bacillus subtilis, UniProt O31796 1-73, R32A)
# T8 sequence: T1 sequence with R32A
# B1: AU5G (ssRNA)
# RNA: AUUUUUG
# B2: BsHfq-His H57A (natural protein, Bacillus subtilis)
# chain: T1 sequence with H57A
# B3: BsHfq-His F29A (natural protein, Bacillus subtilis)
# chain: T1 sequence with F29A
# B4: BsHfq-His F41A (natural protein, Bacillus subtilis)
# chain: T1 sequence with F41A
# B5: BsHfq-His K56A (natural protein, Bacillus subtilis)
# chain: T1 sequence with K56A
# B6: BsHfq-His N40A (natural protein, Bacillus subtilis)
# chain: T1 sequence with N40A
# B7: C-terminal 6x His fusion BsHfq, wild type (natural protein, Bacillus subtilis)
# chain: T1 sequence
# B8: BsHfq-His R32A (natural protein, Bacillus subtilis)
# chain: T1 sequence with R32A
# B9: BsHfq-His F24A (natural protein, Bacillus subtilis)
# chain: T1 sequence with F24A
# B10: BsHfq-His Q30A (natural protein, Bacillus subtilis)
# chain: T1 sequence with Q30A
# B11: 28f (ssRNA)
# RNA: GGGACACAAUGGACGAGGGAUUUGGGUGAUAUUUUUAGUCGGUCAUAACGGCCGACAUGAGAG
# B12: 49R (structured_RNA)
# RNA: GGGCGAAUUCUAGAGAGAGAUUAGAUCCUGUCCGCGGCUAAAGCU
# B13: 49R-A (ssRNA)
# RNA: B12 RNA with G17A
# What was measured:
# BsHfq (GST removed) = biological target: T1, BsHfq (GST removed); experiment: EMSA
# SEC + other: SDS-PAGE = biological target: the molecule itself; experiment: SEC + other: SDS-PAGE
# BsHfq-His [1] = biological target: T2, BsHfq-His; experiment: EMSA
# BsHfq-His F41A = biological target: T3, BsHfq-His F41A; experiment: EMSA
# BsHfq-His N40A = biological target: T4, BsHfq-His N40A; experiment: EMSA
# BsHfq-His F24A = biological target: T5, BsHfq-His F24A; experiment: EMSA
# BsHfq-His F29A = biological target: T6, BsHfq-His F29A; experiment: EMSA
# BsHfq-His Q30A = biological target: T7, BsHfq-His Q30A; experiment: EMSA
# BsHfq-His R32A = biological target: T8, BsHfq-His R32A; experiment: EMSA
# BsHfq-His [2] = biological target: T2, BsHfq-His; experiment: UV cross-linking
# BsHfq-His [3] = biological target: T2, BsHfq-His; experiment: UV cross-linking; remark: listed apart in the source
binder,measurement,setting,value
B1,binding result,BsHfq (GST removed),no binding
B2,"ability to form hexameric structure, percent of wild-type",SEC + other: SDS-PAGE,~30 % of wild-type
B3,stoichiometry N,SEC + other: SDS-PAGE,6
B4,stoichiometry N,SEC + other: SDS-PAGE,6
B5,"ability to form hexameric structure, percent of wild-type",SEC + other: SDS-PAGE,~60 % of wild-type
B6,stoichiometry N,SEC + other: SDS-PAGE,6
B7,stoichiometry N,SEC + other: SDS-PAGE,6
B8,stoichiometry N,SEC + other: SDS-PAGE,6
B9,stoichiometry N,SEC + other: SDS-PAGE,6
B10,stoichiometry N,SEC + other: SDS-PAGE,6
B11,binding result,BsHfq-His [1],no binding
B12,binding result,BsHfq-His F41A,binds
same,binding result,BsHfq-His N40A,binds
same,binding result,BsHfq-His F24A,no binding
same,binding result,BsHfq-His F29A,no binding
same,binding result,BsHfq-His Q30A,no binding
same,binding result,BsHfq-His R32A,no binding
same,binding result,BsHfq-His [2],binds
B13,binding result,BsHfq-His [3],binds
